Reference: article PMC13529201

Target: His-tagged Pasteurella lipoprotein E (PlpE) of P. multocida (Pasteurella multocida)
Assay: BLI

B1: ABCF2 used as analyte in bio-layer interferometry (natural protein)
chain: MPSDLAKKKAAKKKEAAKARQRPRKGHEENGDVVTEPQVAEKNEANGRETTEVDLLTKELEDFEMKKAAARAVTGVLASHPNSTDVHIINLSLTFHGQELLSDTKLELNSGRRYGLIGLNGIGKSMLLSAIGKREVPIPEHIDIYHLTREMPPSDKTPLHCVMEVDTERAMLEKEAERLAHEDAECEKLMELYERLEELDADKAEMRASRILHGLGFTPAMQRKKLKDFSGGWRMRVALARALFIRPFMLLLDEPTNHLDLDACVWLEEELKTFKRILVLVSHSQDFLNGVCTNIIHMHNKKLKYYTGNYDQYVKTRLELEENQMKRFHWEQDQIAHMKNYIARFGHGSAKLARQAQSKEKTLQKMMASGLTERVVSDKTLSFYFPPCGKIPPPVIMVQNVSFKYTKDGPCIYNNLEFGIDLDTRVALVGPNGAGKSTLLKLLTGELLPTDGMIRKHSHVKIGRYHQHLQEQLDLDLSPLEYMMKCYPEIKEKEEMRKIIGRYGLTGKQQVSPIRNLSDGQKCRVCLAWLAWQNPHMLFLDEPTNHLDIETIDALADAINEFEGGMMLVSHDFRLIQQVAQEIWVCEKQTITKWPGDILAYKEHLKSKLVDEEPQLTKRTHNV
With B1 the Kd was 970 nM.
